Data on three molecules can be found in paper PMC9116609 (Science Advances, 2022).

In general, IC50 refers to the point on the concentration scale where inhibition reaches its midpoint.

B1: dehydrodolichyl diphosphate synthase (DHDDS), residues 1 to 333 (enzyme)
chain: MSWIKEGELSLWERFCANIIKAGPMPKHIAFIMDGNRRYAKKCQVERQEGHSQGFNKLAETLRWCLNLGILEVTVYAFSIENFKRSKSEVDGLMDLARQKFSRLMEEKEKLQKHGVCIRVLGDLHLLPLDLQELIAQAVQATKNYNKCFLNVCFAYTSRHEISNAVREMAWGVEQGLLDPSDISESLLDKCLYTNRSPHPDILIRTSGEVRLSDFLLWQTSHSCLVFQPVLWPEYTFWNLFEAILQFQMNHSVLQKARDMYAEERKRQQLERDQATVTEQLLREGLQASGDAQLRRTRLHKLSARREERVQGFLQALELKRADWLARLGTASA

Series [1] has as its target T1, shcis-PT (soluble human cis-prenyltransferase complex, DHDDS-NgBR) (Homo sapiens, UniProt Q86SQ9).
T1 sequence (Q86SQ9 1-333): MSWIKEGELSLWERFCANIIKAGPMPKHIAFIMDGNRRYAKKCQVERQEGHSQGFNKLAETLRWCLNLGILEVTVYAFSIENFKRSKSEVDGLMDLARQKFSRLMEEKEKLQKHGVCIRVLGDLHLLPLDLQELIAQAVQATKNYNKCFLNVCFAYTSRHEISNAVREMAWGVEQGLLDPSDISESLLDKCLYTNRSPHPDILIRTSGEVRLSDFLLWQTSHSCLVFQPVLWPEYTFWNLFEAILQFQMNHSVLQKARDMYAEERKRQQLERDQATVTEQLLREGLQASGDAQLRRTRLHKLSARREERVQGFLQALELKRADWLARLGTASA
T1 sequence (Q96E22 73-293 partner): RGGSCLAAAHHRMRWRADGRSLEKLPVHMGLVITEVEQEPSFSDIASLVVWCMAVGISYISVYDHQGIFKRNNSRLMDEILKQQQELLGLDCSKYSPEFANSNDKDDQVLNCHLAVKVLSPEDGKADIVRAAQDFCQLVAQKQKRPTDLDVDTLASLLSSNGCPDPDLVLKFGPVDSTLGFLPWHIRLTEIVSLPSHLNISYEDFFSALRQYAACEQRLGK
Put plainly: displacement of MANT-O-GPP followed by FRET. The class given is binding. Particulars: competition with 10 μM MANT-O-GPP; pH 7.5, 0.5 mM MgCl2, 1 μM enzyme; S1 site.

The series “crystal structure” deals with the molecule itself. Put plainly: crystal structure.
Series [2] deals with B1. Put plainly: crystal structure.

In series [1], `CC(C)=CCC/C(C)=C/CC/C(C)=C/CO[P@@](=O)(O)OP(=O)(O)O` [FPP] showed an IC50 of 10.5 ± 3 µM. Take B1: the binding result in “crystal structure” is recorded as “binds”.

B2: Nogo B-receptor (NgBR), pseudo cis-prenyltransferase domain, residues 73 to 293 lacking residues 167 to 175 (domain or fragment)
chain: RGGSCLAAAHHRMRWRADGRSLEKLPVHMGLVITEVEQEPSFSDIASLVVWCMAVGISYISVYDHQGIFKRNNSRLMDEILKQQQELLGLDCSKDKDDQVLNCHLAVKVLSPEDGKADIVRAAQDFCQLVAQKQKRPTDLDVDTLASLLSSNGCPDPDLVLKFGPVDSTLGFLPWHIRLTEIVSLPSHLNISYEDFFSALRQYAACEQRLGK
For B2, the binding result in series [2] is “binds”.
